Reference: patent publication US10344295B2, “Methods and compositions for providing resistance to glufosinate” (priority 2014, dated 2019)

Legend:
TOP10 E. coli cells = test: minimum inhibitory concentration experiment: growth of E. coli in liquid media with glufosinate; type: cell-based
Experimental: FIG. 1 provides a minimal inhibitory concentration experiment. A polynucleotide encoding SEQ ID NO: 1 was transformed into E. coli cells for protein expression with an N-terminal maltose binding protein. The resulting E. coli clone was analyzed for the ability to grow in the presence of glufosinate.
Predicted ORFs (open reading frames) and protein products from genome sequences of several bacterial isolates were identified. A predicted protein was found with 43.53% identity to the phosphinothricin acetyltransferase (PAT) gene. This gene coding for a new GluR (glufosinate resistance) protein was cloned from that strain and is referred to herein as GluRAP1 and set forth in SEQ ID NO:1 (protein sequence) and 2 (DNA sequence). […] The gene coding for SEQ ID NO: 1 was cloned into the pMAL vector and transformed into TOP10 E. coli cells for protein expression with an N-terminal Maltose Binding Protein. […]
The strain was subsequently grown with success on 100 mM glufosinate-supplemented M63 minimal media; while the gene coding for a new GluR (glufosinate resistance) protein was cloned from that strain and referred to herein as GluRAP and set forth in SEQ ID NO:1 and 2. […] The resulting E. coli clone was analyzed for the ability to grow in the presence of glufosinate. […]

E. coli = test: growth of E. coli expressing MBP fusions under various glufosinate concentrations after IPTG induction (FIG. 3); type: cell-based; settings: compared with the other genes
Experimental: Genes coding for glufosinate-resistant proteins were cloned as MBP (Maltose Binding Protein) fusions and expressed in E. coli. These E. coli strains were grown. The ability of the strains to tolerate and continue to grow in the presence of glufosinate was measured under various glufosinate concentrations upon induction of gene expression by addition of IPTG into the media in which the strains were growing.

soy callus = test: selection of transformed soy callus on medium containing glufosinate; type: cell-based, soybean; settings: medium containing 25 uM glufosinate; construct pSV37; GUS stain confirmed
Experimental: Transgenic plants were selected by incubating callus on medium containing 25 uM glufosinate.
Transgenic plants were selected by incubating callus on medium containing 25 uM glufosinate. […] (FIG. 4) See above for construct pSV37 that carries APG00318 gene.

Row | Molecule | glufosinate concentration tolerated by control E. coli (TOP10 E. coli cells; control E. coli, minimum inhibitory concentration experiments) | tolerance level to glufosinate of E. coli cultures carrying the gene (E. coli) | glufosinate resistance of transformed soy callus (soy callus) | concentration of glufosinate at which the E. coli clone was able to grow in liquid media (TOP10 E. coli cells; E. coli clone expressing the protein with N-terminal maltose binding protein (pMAL))
1 | CP(=O)(O)CCC(N)C(=O)O (stereo not drawn) [glufosinate] | ≤ 1 mM | – | – | –
2 | SEQ ID NO: 9: glufosinate resistance protein from Serratia sp. strain APG00119, encoded by SEQ ID NO: 10 (protein, Serratia sp. strain APG00119) MTTLSAPVLSLLDATPDDMAAVLRIYTQHVLYGAASFEEQPPTLAEMQLRLSKVREAGLPWLVAKSAGVIVGYCYATPYRPRPAYRFTVEDSVYIAEGQQGKGIGRALLSALIARCEQGPWRQMLAIVGDSAANRGSLALHQSLGFTSAGTLKAVGFKLGEWRDTQIMQRALGAGGNRHP | – | higher tolerance level to glufosinate | – | –
3 | SEQ ID NO: 7: glufosinate resistance protein from Flavobacterium sp. strain APG00135, encoded by SEQ ID NO: 8 (protein, Flavobacterium sp. strain APG00135) MSVILRPATVNDLEKILEIVNHSILHTTANYSYDIQTIEVQTKWFEDKKAKNLPIVVADLDGEVVGFGSYGQFREKIGYQYTVEHSVYVVDNVIGKGIGSKLLTELIRLAKEQGYHVMIGAIDADNAGSITFHEKFGFVATGTIREVGYKFDHWLDLVFMQLILK | – | higher tolerance level to glufosinate | – | –
4 | SEQ ID NO:1: glufosinate resistance protein from Pseudomonas sp. strain APG00318, encoded by SEQ ID NO: 2 (protein, Pseudomonas sp. strain APG00318) MSKTTVRIAQVSDAQAIQAIYAPMVESTTISFELEPPSVEEMAMRIESTLLTYPYLVAVRDGQVIGYAYASQHRAREAYRWSVDVTVYISPEAHRSGVGRALYDVLLPTLKKQGFHAAYAGIALPNDGSVGLHEALGFAHIGTYPEVGFKHGAWRDVGYWRIALDSTNPPKLPVLFSEISLF | – | higher tolerance level to glufosinate | Glufosinate resistance was observed | 100 mM
